In this assay the target is K63-linked diubiquitin (UniProt P0CG48 1-76; P0CG48 1-76, K48R | K63R | D77 extension). Nature of the assay: ITC. In general terms: Isothermal titration calorimetry measures the heat released or taken up as one component is titrated into another.

B1: full-length ASCC2 (natural protein)
chain: MPALPLDQLQITHKDPKTGKLRTSPALHPEQKADRYFVLYKPPPKDNIPALVEEYLERATFVANDLDWLLALPHDKFWCQVIFDETLQKCLDSYLRYVPRKFDEGVASAPEVVDMQKRLHRSVFLTFLRMSTHKESKDHFISPSAFGEILYNNFLFDIPKILDLCVLFGKGNSPLLQKMIGNIFTQQPSYYSDLDETLPTILQVFSNILQHCGLQGDGANTTPQKLEERGRLTPSDMPLLELKDIVLYLCDTCTTLWAFLDIFPLACQTFQKHDFCYRLASFYEAAIPEMESAIKKRRLEDSKLLGDLWQRLSHSRKKLMEIFHIILNQICLLPILESSCDNIQGFIEEFLQIFSSLLQEKRFLRDYDALFPVAEDISLLQQASSVLDETRTAYILQAVESAWEGVDRRKATDAKDPSVIEEPNGEPNGVTVTAEAVSQASSHPENSEEEECMGAAAAVGPAMCGVELDSLISQVKDLLPDLGEGFILACLEYYHYDPEQVINNILEERLAPTLSQLDRNLDREMKPDPTPLLTSRHNVFQNDEFDVFSRDSVDLSRVHKGKSTRKEENTRSLLNDKRAVAAQRQRYEQYSVVVEEVPLQPGESLPYHSVYYEDEYDDTYDGNQVGANDADSDDELISRRPFTIPQVLRTKVPREGQEEDDDDEEDDADEEAPKPDHFVQDPAVLREKAEARRMAFLAKKGYRHDSSTAVAGSPRGHGQSRETTQERRKKEANKATRANHNRRTMADRKRSKGMIPS
On to B1, for which the “stoichiometry N” value came out at 1 ASCC2 per K63Ub2.

What is called stoichiometry N is the number of molecules, sites or subunits per partner or assembly.

The values above are taken from paper doi:10.1101/2021.10.17.464694 (bioRxiv, 2021).
